Here are results for one molecule from publication PMC4703387, “Identification of the Calmodulin-Binding Domains of Fas Death Receptor” (PLoS ONE, 2016).

This test has as its target T1, calmodulin, calcium-bound (Ca2+/CaM) (UniProt P0DP23 1-149).
T1 construct: all experiments in the presence of calcium; Used unlabelled or 15N/13C-labelled; also called full-length Ca^2+/CaM
Put plainly: NMR titration; 2D 1H-15N HSQC; unlabelled peptide titrated into 15N-labelled Ca2+/CaM, Ca2+/CaM-N or Ca2+/CaM-C (100-150 uM), 35°C, 50 mM Tris-d11 pH 7.0, 100 mM NaCl, 5 mM CaCl2; Kd by one-site fit of chemical shift changes. The following applies: both partners purified.

B1: FasDD(224-238) peptide (peptide)
peptide: MTLSQVKGFVRKNGV
notes: also called FasDD(228–238); source: synthetic peptide, bought: Genscript (>95% purity)
For B1, the binding result is listed as “binds”.
